Earlier results on 25 molecules are cited in patent US20250341526A1, “NOVEL DYES” (Quantum-Si Incorporated, priority 2024, published 2025).

First the molecules themselves.
B1: PS380: ClpS amino acid recognition protein, SEQ ID NO: 13 (protein)
chain: MGDIYGESNPEEVSCIDSLSEEGNELILFNDNIHTFEYVIDCLVAICSLSYEQASNCAYIVDRKGLCTVKHGSYDELLIMYHALVEKDLKVEIR
B2: PS382: ClpS amino acid recognition protein, SEQ ID NO: 15 (protein)
chain: MSDSPVIKEIKKDNIKEADEHEKKEREKETSAWKVILYNDDIHNFTYVTDVIVKVVGQISKAKAHTITVEAHSTGQALILSTWKSKAEKYCQELQQNGLTVSIIHESQLKDKQKK
B3: PS391: ClpS amino acid recognition protein, SEQ ID NO: 19 (protein)
chain: MGQTVEKPRVEGPGTGLGGSWRVIVRNDDHNTFDHVARTLARFIPGVSLERGHEIAKVIHTTGRAVVYTGHKEAAEHYWQQLKGAGLTMAPLEQG
B4: PS392: ClpS amino acid recognition protein, SEQ ID NO: 20 (protein)
chain: MSVEIIEKRSTVRKLAPRYRVLLHNDDFNPMEYVVQTLMATVPSLTQPQAVNVMMEAHTNGMGLVIVCALEHAEFYAETLNNHGLGSSIEPDD
B5: PS390: ClpS amino acid recognition protein, SEQ ID NO: 18 (protein)
chain: MLSIAAVTEAPSKGVQTADPKTVRKPYPNYKVIVLNDDFNTFQHVSSCLLKYIPGMSEARAWELTNQVHFEGLAVVWVGPQEQAELYYAQLKNAGLTMAPPEPA
B6: PS389: ClpS amino acid recognition protein, SEQ ID NO: 17 (protein)
chain: MLNSAAFKAASASPVIAPERSGQVTQKPYPTYKVIVLNDDFNTFQHVHDCLVKYIPGMTSDRAWQLTHQVHNDGQAIVWVGPQEQAELYHQQLSRAGLTMAPIEAA
B7: PS395: ClpS amino acid recognition protein, SEQ ID NO: 23 (protein)
chain: MTVSQSKTQGAPAAQSATELEYEGLWRVVVLNDPVNLMSYVVLVFKKVFGFDETTARKHMLEVHEQGRSVVWSGMREKAEAYAFTLQQWHLTTVLEQDEVR
B8: PS368: ClpS amino acid recognition protein, SEQ ID NO: 1 (protein)
chain: MASAPSTTLDKSTQVVKKTYPNYKVIVLNDDLNTFDHVANCLIKYIPDMTTDRAWELTNQVHYQGQAIVWTGPQEQAELYHQQLRREGLTMAPLEAA
B9: Synechococcus elongatus ClpS2: ClpS amino acid recognition protein, SEQ ID NO: 106 (protein, listed as Synechococcus elongatus)
chain: MSPQPDESVLSILGVPRPCVKKRSRNDAFVLTVLTCSLQAIAAPATAPGTTTTRVRQPYPHFRVIVLDDDVNTFQHVAECLLKYIPGMTGDRAWDLTNQVHYEGAATVWSGPQEQAELYHEQLRREGLTMAPLEAA
B10: Escherichia coli ClpS: ClpS amino acid recognition protein, SEQ ID NO: 108 (protein, listed as Escherichia coli)
chain: MGKTNDWLDFDQLAEEKVRDALKPPSMYKVILVNDDYTPMEFVIDVLQKFFSYDVERATQLMLAVHYQGKAICGVFTAEVAETKVAMVNKYARENEHPLLCTLEKA
B11: Escherichia coli ClpS M40A: ClpS amino acid recognition protein, SEQ ID NO: 109 (protein, listed as Escherichia coli)
chain: MGKTNDWLDFDQLAEEKVRDALKPPSMYKVILVNDDYTPAEFVIDVLQKFFSYDVERATQLMLAVHYQGKAICGVFTAEVAETKVAMVNKYARENEHPLLCTLEKA
B12: PS393: ClpS amino acid recognition protein, SEQ ID NO: 21 (protein)
chain: MSDEDGEDGDENAVGIATRTRTRTKKPTPYRVLLLNDDYTPMEFVVLVLQRFFRMSIEDATRVMLQVHQKGVGVCGVFTYEVAETKVSQVIDFARQNQHPLQCTLEKA
B13: Synechococcus elongatus ClpS1: ClpS amino acid recognition protein, SEQ ID NO: 105 (protein, listed as Synechococcus elongatus)
chain: MAVETIQKPETTTKRKIAPRYRVLLHNDDFNPMEYVVMVLMQTVPSLTQPQAVDIMMEAHTNGTGLVITCDIEPAEFYCEQLKSHGLSSSIEPDD
B14: atClpS1 C7S, C84S, C112S: ClpS amino acid recognition protein, SEQ ID NO: 104 (protein)
chain: MIAEPISMQGEGDGEDGGTNRGTSVITRVKPKTKRPNLYRVLLLNDDYTPMEFVIHILERFFQKDREAATRIMLHVHQHGVGESGVFTYEVAETKVSQVMDFARQHQHPLQSVMEKK
B15: PS388: ClpS amino acid recognition protein, SEQ ID NO: 16 (protein)
chain: MVTTLSADVYGMATAPTVAPERSNQVVRKTYPNYKVIVLNDDFNTFQHVAECLMKYIPGMSSDRAWDLTNQVHYEGQAIVWVGPQEPAELYHQQLRRAGLTMAPLEAA
B16: Thermosynechococcus elongatus ClpS: ClpS amino acid recognition protein, SEQ ID NO: 107 (protein, listed as Thermosynechococcus elongatus)
chain: MPQERQQVTRKHYPNYKVIVLNDDFNTFQHVAACLMKYIPNMTSDRAWELTNQVHYEGQAIVWVGPQEQAELYHEQLLRAGLTMAPLEPE
B17: PS394: ClpS amino acid recognition protein, SEQ ID NO: 22 (protein)
chain: MAERRDTGDDEGTGLGIATKTRSKTKKPTPYRVLMLNDDYTPMEFVVLCLQRFFRMNMEEATRVMLHVHQKGVGVCGVFSYEVAETKVGQVIDFARANQHPLQCTLEKA
B18: Plasmodium falciparum ClpS: ClpS amino acid recognition protein, SEQ ID NO: 110 (protein, listed as Plasmodium falciparum)
chain: MFKDLKPFFLCIILLLLLIYKCTHSYNIKNKNCPLNFMNSCVRINNVNKNTNISFPKELQKRPSLVYSQKNFNLEKIKKLRNVIKEIKKDNIKEADEHEKKEREKETSAWKVILYNDDIHNFTYVTDVIVKVVGQISKAKAHTITVEAHSTGQALILSTWKSKAEKYCQELQQNGLTVSIIHESQLKDKQKK
B19: PS505: amino acid recognition protein, SEQ ID NO: 133 (protein, listed as Brachionus plicatilis)
chain: MVCGRVFKSGEPSYFCRECGTDPTCVLCSICFRHSKHRYHKYVMMTSGGGGYCDCGDPEAWKSDPCCELHMP
B20: PS501: amino acid recognition protein, SEQ ID NO: 129 (protein, listed as Amanita thiersii)
chain: MICGQIIGKGESCFRCRDCGLDESCVMCSQCFHATDHINHNVSFFVSQQPGGCCDCGDEEAWKKPMNCPYHPP
B21: PS502: amino acid recognition protein, SEQ ID NO: 130 (protein, listed as Helobdella robusta)
chain: MVCLKVFKLGEPTYSCRSVTCGMDPTCVLCVDCFQNSSHKLHKYKMSTSGGGGYCDCGDLEAWKADPLCDLHKL
B22: PS503: amino acid recognition protein, SEQ ID NO: 131 (protein, listed as Hydra vulgaris)
chain: MFCGRLFKVGDPTYTCKDCAADPTCVFCHDCFHQSVHTKHKYKLFASQGRGGYCDCGDKEAWTNDPACNKHKE
B23: PS506: amino acid recognition protein, SEQ ID NO: 134 (protein, listed as Capitella teleta)
chain: MLCGKVFKMGELTYSCRDCGTDPTCVLCMDCFQHSAHKKHRYKMAASGGGGYCDCGDREAWKAEPFCDVHKR
B24: Saccharomyces cerevisiae GID10: amino acid recognition protein, SEQ ID NO: 125 (protein, listed as Saccharomyces cerevisiae)
chain: MTSLNIMGRKFILERAKRNDNIEEIYTSAYVSLPSSTDTRLPHFKAKEEDCDVYEEGTNLVGKNAKYTYRSLGRHLDFLRPGLRFGGSQSSKYTYYTVEVKIDTVNLPLYKDSRSLDPHVTGTFTIKNLTPVLDKVVTLFEGYVINYNQFPLCSLHWPAEETLDPYMAQRESDCSHWKRFGHFGSDNWSLTERNFGQYNHESAEFMNQRYIYLKWKERFLLDDEEQENQMLDDNHHLEGASFEGFYYVCLDQLTGSVEGYYYHPACELFQKLELVPTNCDALNTYSSGFEIA
B25: PS504: amino acid recognition protein, SEQ ID NO: 132 (protein, listed as Galleria mellonella)
chain: MLCGKVFKQGEPAYSCRECGMDNTCVLCVECFKVSPHRHHKYKMGQSGGGGCCDCGDTEAWKRDPFCERHAK

The first series relates to amino acid at a terminal position of a polypeptide. The following applies: Table 1, ClpS proteins; amino acid at terminal position; inferred from literature and/or demonstrated by the inventors; cited from earlier work.
Consider B1, for which the “Binding Pref.” value is “F, W”.

B2: the “Binding Pref.” value is given as “F, Y, W, L”.

Consider B3, for which the “Binding Pref.” value is on record as “F, Y, W, L”.

As to B4, the “Binding Pref.” value was “F, Y, W”.

With B5, the “Binding Pref.” value is recorded as “F, Y, L”.

As for B6, the “Binding Pref.” value is “F, Y, L”.

In the case of B7, the “Binding Pref.” value was “F, Y, W, L”.

As to B8, the “Binding Pref.” value was “F, Y, W, L”.

As for B9, the “Binding Pref.” value is reported as “F, W, Y, L”.

B10: the “Binding Pref.” value was “F, W, Y, L”.

B11: the “Binding Pref.” value was “F, W, Y, L”.

In the case of B12, the “Binding Pref.” value is given as “F, Y, W, L”.

Consider B13, for which the “Binding Pref.” value is on record as “F, W, Y”.

B14: the “Binding Pref.” value is recorded as “F, W, Y, L”.

On to B15, for which the “Binding Pref.” value was “F, Y, L”.

B16: the “Binding Pref.” value is on record as “F, W, Y, L”.

For B17, the “Binding Pref.” value is “F, Y, W, L”.

For B18, the “Binding Pref.” value is “F, W, Y, L”.

The same series, now with this note: Table 2; amino acid at terminal position (phosphotyrosine also internal); inferred from literature and/or demonstrated by the inventors; cited from earlier work.
With B19, the “Binding Pref.” value is recorded as “K, R, H”.

Regarding B20, the “Binding Pref.” value was “K, R, H”.

As for B21, the “Binding Pref.” value is “K, R, H”.

B22: the “Binding Pref.” value is “K, R, H”.

For the molecule B23, the “Binding Pref.” value is recorded as “K, R, H”.

On to B24, for which the “Binding Pref.” value is recorded as “P, M, V”.

As to B25, the “Binding Pref.” value is “K, R, H”.
